# Reference: patent US20180291083A1 (IMMATICS BIOTECHNOLOGIES, published 2018)
# B1: FTDIDGQVY (peptide)
# peptide: FTDIDGQVY
# B2: ISEAGKDLLY (peptide)
# peptide: ISEAGKDLLY
# B3: TFDLTVVSY (peptide)
# peptide: TFDLTVVSY
# B4: YTDKKSIIY (peptide)
# peptide: YTDKKSIIY
# B5: ATDIVDSQY (peptide)
# peptide: ATDIVDSQY
# B6: VTEGVAQTSFY (peptide)
# peptide: VTEGVAQTSFY
# B7: LTDSEKGNSY (peptide)
# peptide: LTDSEKGNSY
# B8: VTEEPQRLFY (peptide)
# peptide: VTEEPQRLFY
# B9: YSDIGHLL (peptide)
# peptide: YSDIGHLL
# B10: AAADHHSLY (peptide)
# peptide: AAADHHSLY
# B11: SVADIRNAY (peptide)
# peptide: SVADIRNAY
# B12: STDSAGSSY (peptide)
# peptide: STDSAGSSY
# B13: YSHPQYSSY (peptide)
# peptide: YSHPQYSSY
# B14: HVDQDLTTY (peptide)
# peptide: HVDQDLTTY
# B15: ITDIHIKY (peptide)
# peptide: ITDIHIKY
# B16: GTDVLSTRY (peptide)
# peptide: GTDVLSTRY
# B17: FMDSESFYY (peptide)
# peptide: FMDSESFYY
# B18: YVDAGTPMY (peptide)
# peptide: YVDAGTPMY
# B19: YSDKEFAGSY (peptide)
# peptide: YSDKEFAGSY
# B20: WIGDKSFEY (peptide)
# peptide: WIGDKSFEY
# B21: RSDPGGGGLAY (peptide)
# peptide: RSDPGGGGLAY
# B22: VFLPSEGFNF (peptide)
# peptide: VFLPSEGFNF
# B23: LYSDIGHLL (peptide)
# peptide: LYSDIGHLL
# B24: KYIEYYLVL (peptide)
# peptide: KYIEYYLVL
# B25: YYLSHLERI (peptide)
# peptide: YYLSHLERI
# B26: SYADNILSF (peptide)
# peptide: SYADNILSF
# B27: RFPPTPPLF (peptide)
# peptide: RFPPTPPLF
# B28: IYFSNTHFF (peptide)
# peptide: IYFSNTHFF
# B29: SFQSKATVF (peptide)
# peptide: SFQSKATVF
# B30: RYLDEINLL (peptide)
# peptide: RYLDEINLL
# B31: TYPQLEGFKF (peptide)
# peptide: TYPQLEGFKF
# B32: KYLADLPTL (peptide)
# peptide: KYLADLPTL
# B33: IFKEHNFSF (peptide)
# peptide: IFKEHNFSF
# B34: EYNTIKDKF (peptide)
# peptide: EYNTIKDKF
# B35: TYVENLRLL (peptide)
# peptide: TYVENLRLL
# B36: IFVARLYYF (peptide)
# peptide: IFVARLYYF
# B37: KYSSGFRNI (peptide)
# peptide: KYSSGFRNI
# B38: RYLGKNWSF (peptide)
# peptide: RYLGKNWSF
# B39: RFYLLTEHF (peptide)
# peptide: RFYLLTEHF
# B40: LYQDRFDYL (peptide)
# peptide: LYQDRFDYL
# B41: YLLPSVVLL (peptide)
# peptide: YLLPSVVLL
# B42: RLIAKEMNI (peptide)
# peptide: RLIAKEMNI
# B43: KLLGYDVHV (peptide)
# peptide: KLLGYDVHV
# B44: SLYVQQLKI (peptide)
# peptide: SLYVQQLKI
# B45: ILAAVETRL (peptide)
# peptide: ILAAVETRL
# B46: FLFDKLLLI (peptide)
# peptide: FLFDKLLLI
# B47: KLSDNILKL (peptide)
# peptide: KLSDNILKL
# B48: SLMDLQERL (peptide)
# peptide: SLMDLQERL
# B49: FLLPKVQSI (peptide)
# peptide: FLLPKVQSI
# B50: FAFSGVLRA (peptide)
# peptide: FAFSGVLRA
# B51: VMLQINPKL (peptide)
# peptide: VMLQINPKL
# B52: KLGPVAVSI (peptide)
# peptide: KLGPVAVSI
# B53: AMPDSPAEV (peptide)
# peptide: AMPDSPAEV
# B54: KAYNRVIFV (peptide)
# peptide: KAYNRVIFV
# B55: FLINTNSEL (peptide)
# peptide: FLINTNSEL
# B56: ILHAQTLKI (peptide)
# peptide: ILHAQTLKI
# B57: SLFEGIYTI (peptide)
# peptide: SLFEGIYTI
# B58: FLLPKVQSIQL (peptide)
# peptide: FLLPKVQSIQL
# B59: FSLEDLVRI (peptide)
# peptide: FSLEDLVRI
# B60: YLNEKSLQL (peptide)
# peptide: YLNEKSLQL
# B61: SLADVHIEV (peptide)
# peptide: SLADVHIEV
# B62: peptide APLLRHWEL (SEQ ID NO: 112) (peptide)
# peptide: APLLRHWEL
# notes: synthetic peptide; also called HLA-DOA peptide
# B63: peptide FGLARIYSF (SEQ ID NO: 110) (peptide)
# peptide: FGLARIYSF
# notes: synthetic peptide; also called CDK6 peptide
# B64: peptide ILAIRQNAL (SEQ ID NO: 108) (peptide)
# peptide: ILAIRQNAL
# notes: synthetic peptide; also called AGPAT5 peptide
# B65: peptide LGHVRYVL (SEQ ID NO: 109) (peptide)
# peptide: LGHVRYVL
# notes: as for B64
# B66: peptide QAAQRTAL (SEQ ID NO: 107) (peptide)
# peptide: QAAQRTAL
# notes: synthetic peptide; also called AFF3 peptide
# Target: T1, HLA-A*01:01 (human)
# T1 construct: Peptide-receptive MHC class I monomer made by UV cleavage of a UV-sensitive ligand
# Experiment: UV ligand exchange ELISA; exchange yield grade
# In short: (§1)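 Peptide–MHC complexes formed by UV-ligand exchange, in which a UV-cleavable peptide is replaced by the test peptide. Exchange yield measured by ELISA detecting β2m of stabilised complexes captured on streptavidin, against refolded HLA-A*02:01/MLA-001 monomer standards (15-500 ng/ml); samples diluted 100-fold.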
row,peptide exchange yield,Binder
1,50 to 75%,B1
2,50 to 75%,B2
3,20 to 50%,B3
4,50 to 75%,B4
5,50 to 75%,B5
6,> 75%,B6
7,50 to 75%,B7
8,> 75%,B8
9,20 to 50%,B9
10,50 to 75%,B10
11,20 to 50%,B11
12,> 75%,B12
13,20 to 50%,B13
14,20 to 50%,B14
15,> 75%,B15
16,50 to 75%,B16
17,10 to 20%,B17
18,50 to 75%,B18
19,> 75%,B19
20,20 to 50%,B20
21,50 to 75%,B21

# Target: T2, HLA-A*24:02 (human)
# T2 construct: Peptide-receptive MHC class I monomer made by UV cleavage of a UV-sensitive ligand
# Experiment: UV ligand exchange ELISA; exchange yield grade
# In short: as §1
row,peptide exchange yield,Binder
1,50 to 75%,B22
2,50 to 75%,B23
3,> 75%,B24
4,> 75%,B25
5,> 75%,B26
6,> 75%,B27
7,50 to 75%,B28
8,20 to 50%,B29
9,50 to 75%,B30
10,> 75%,B31
11,> 75%,B32
12,> 75%,B33
13,50 to 75%,B34
14,50 to 75%,B35
15,> 75%,B36
16,50 to 75%,B37
17,> 75%,B38
18,50 to 75%,B39
19,> 75%,B40

# Target: T3, HLA-A*02:01 (human)
# T3 construct: Peptide-receptive MHC class I monomer made by UV cleavage of a UV-sensitive ligand
# Experiment: UV ligand exchange ELISA; exchange yield grade
# In short: as §1
row,peptide exchange yield,Binder
1,> 75%,B41
2,> 75%,B42
3,50 to 75%,B43
4,> 75%,B44
5,50 to 75%,B45
6,> 75%,B46
7,> 75%,B47
8,50 to 75%,B48
9,> 75%,B49
10,20 to 50%,B50
11,50 to 75%,B51
12,> 75%,B52
13,> 75%,B53
14,50 to 75%,B54
15,> 75%,B55
16,50 to 75%,B56
17,> 75%,B57
18,50 to 75%,B58
19,20 to 50%,B59
20,> 75%,B60
21,> 75%,B61

# Target: T4, human recombinant HLA-B*08:01 with b2m (human)
# T4 construct: Peptide-receptive MHC class I used in the pMHC stability assay by ImmunAware; also called MHC heavy chain and b2m
# Experiment: pMHC stability assay at 37 C, mean half-life of b2m on heavy chain, grade (T1/2 >2 h = +; >4 h = ++; >6 h = +++; >10 h = ++++)
# Method: The peptide-MHC stability for HLA-B*08:01 peptides was performed by ImmunAware (Copenhagen, Denmark). The data were obtained using a proximity based, homogenous, real-time assay to measure the dissociation of peptides from HLA class I molecules. First human recombinant HLA-B*08:01 and b2m were expressed in E. coli and purified in a series of liquid chromatography based steps (Ferre et al., 2003; Ostergaard et al., 2001). Afterwards, the stability of a peptide-MHC complex (pMHC) can be determined by measuring the amount of b2m associated with the MHC heavy chain over time at 37° C. (Harndahl et al., 2012). The stability of each pMHC, expressed as the half life of b2m associated with the respective heavy chain, was calculated by fitting the data to a one-phase dissociation equation.
row,mean half-life (T1/2) of peptide-MHC complex,Binder
1,2 to 4 h,B62
2,2 to 4 h,B63
3,4 to 6 h,B64
4,2 to 4 h,B65
5,4 to 6 h,B66
